Molecular target: the molecule itself
Experiment: cryo-EM structure

B1: human mGlu5 (21-872), metabotropic glutamate receptor subtype 5, in MSP2N2 lipid nanodisc (receptor)
chain: QSSERRVVAHMPGDIIIGALFSVHHQPTVDKVHERKCGAVREQYGIQRVEAMLHTLERINSDPTLLPNITLGCEIRDSCWHSAVALEQSIEFIRDSLISSEEEEGLVRCVDGSSSSFRSKKPIVGVIGPGSSSVAIQVQNLLQLFNIPQIAYSATSMDLSDKTLFKYFMRVVPSDAQQARAMVDIVKRYNWTYVSAVHTEGNYGESGMEAFKDMSAKEGICIAHSYKIYSNAGEQSFDKLLKKLTSHLPKARVVACFCEGMTVRGLLMAMRRLGLAGEFLLLGSDGWADRYDVTDGYQREAVGGITIKLQSPDVKWFDDYYLKLRPETNHRNPWFQEFWQHRFQCRLEGFPQENSKYNKTCNSSLTLKTHHVQDSKMGFVINAIYSMAYGLHNMQMSLCPGYAGLCDAMKPIDGRKLLESLMKTNFTGVSGDTILFDENGDSPGRYEIMNFKEMGKDYFDYINVGSWDNGELKMDDDEVWSKKSNIIRSVCSEPCEKGQIKVIRKGEVSCCWTCTPCKENEYVFDEYTCKACQLGSWPTDDLTGCDLIPVQYLRWGDPEPIAAVVFACLGLLATLFVTVVFIIYRDTPVVKSSSRELCYIILAGICLGYLCTFCLIAKPKQIYCYLQRIGIGLSPAMSYSALVTKTNRIARILAGSKKKICTKKPRFMSACAQLVIAFILICIQLGIIVALFIMEPPDIMHDYPSIREVYLICNTTNLGVVTPLGYNGLLILSCTFYAFKTRNVPANFNEAKYIAFTMYTTCIIWLAFVPIYFGSNYKIITMCFSVSLSATVALGCMFVPKVYIILAKPERNVRSAFTTSTVVRMHVGDGKSSSAASRSSSLVNLWKRRGSS
binding result: binds

Source: paper PMC10491200 (bioRxiv, 2023)
